Results: patent US12662540B2, “Compositions and methods for inhibition of MICA/B shedding” (DANA-FARBER CANCER INSTITUTE, INC., priority 2017, dated 2026)

What was measured:
[1] = test system: murine tumor cell lines (B16F10, CT26, Neuro-2a) expressing full-length MICA or MICB; test: Shed and surface MICA/MICB in murine tumor cell lines transduced with full-length MICA or MICB; type: cell-based, mouse; settings: B16F10 cells expressing MICA or MICB; comparison among mAbs
From the text: B16F10, CT26, Neuro-2a, EL4 and RMA-S cell lines were transduced with lentiviral vector pHAGE-CMV-fullEF1a. MICA (allele 009) cDNA or other inserts were placed between NotI and BamHI cloning sites, 3′ to the EF1α promoter and 5′ to the IRES. ZsGreen or luciferase cDNAs were cloned 3′ to the IRES as fluorescence or bioluminescence reporters, respectively. The vector with the ZsGreen reporter was used to compare expression of cDNAs encoding full length MICA, full-length MICB and secreted MICA (Neuro-2a, RMA-S and/or B16F10 cell lines). CT26, EL4 and B16F10 cell lines were transduced with the vector that supported expression of the luciferase reporter. […]
Tumor cells (5×10^4 or 1×10^5 per well, depending on the cell line) were cultured for 24 to 72 hours in 96-well plates (flat-bottom plates for adherent cell lines, U-bottom plates for suspension cell lines). […] MICA or control antibodies were added at different concentrations, and shed MICA/B was then detected in supernatants by ELISA using the Human MICA ELISA kit (Ab59569, Abcam) or Human MICB DuoSet ELISA kit (DY1599, R&D Systems), using the procedures recommended by the manufacturers. […]
MICA and MICB were detected on the cell surface by the PE-conjugated anti-MICA/B antibody (clone 6D4, 320906, Biolegend). […] All samples were acquired in a BD LSR Fortessa flow cytometer, and analyzed by FlowJo V10 software.

[2] = test system: B16F10-MICA lung metastases; test: Flow cytometry-based analysis of immune and tumor cells in lung tissue; type: in vivo, C57BL/6 mice
Description: Wild-type mice were injected with 1×10^6 B16F10 cells that were previously transduced with ZsGreen-based lentiviral vectors (full-length MICA, secreted MICA or empty vector). In some experiments, mice received a lower dose of B16F10-MICA tumor cells (7×10^5). On days 1, 2, 7 and 10 following B16F10-MICA cell injection, mice received 200 μg of 7C6-mIgG2a or isotype control (C1184) antibodies by intraperitoneal injection. Prior to euthanasia, mice received an intravenous injection of 50 μl of APC-conjugated anti-CD45.2 (clone104, Biolegend) to label intravascular immune cells. Approximately 5 minutes later, mice were euthanized by CO2 inhalation and cell suspensions were generated from lung tissue. Lungs were cut into small pieces which were re-suspended in 10 ml of RPMI-1640 supplemented with 1 mg/ml collagenase type IV, 0.1 mg/ml hyaluronidase, and 20 U/ml DNase type IV. Samples were dissociated in a gentleMACS instrument (Miltenyi) using the program 37C_m_LDK 1 which digests the tissue by incubation with 37° C. followed by mechanical dissociation. Cells were then washed with PBS, Fc receptors were blocked with Mouse True Stain FcX (Biolegend), and cells were stained with PE-Cy7 or v450-conjugated anti-CD45.2 (104), PE or BV785-NK1.1 (PK136), PerCP-Cy5.5 or Alexa^700-NKp46 (29A1.4), APC or APC-Cy7-CD3c (145.2C11), APC or BV511-TCRβ, PE-Cy5 or Alexa^488-CD69 (H1.2F3), BV421-NKG2D (CX5), BV510-Ly49C (5E6), BV570-CD62L (MEL-14), BV605-CD49a (Ha31/8), Alexa^488-EOMES (Dan11mag), PE-Granzyme A (GzA-3G8.5), PE or PERCP-Cy5.5-CD16/CD32 (93), PE-Cy7-Granzyme B (NGZB), BV510-DNAM-1 (10E5), Alexa^488-KLRG1 (2F1), PE-CXCR6 (SA051D1), PERCP-Cy5.5 or PE-Cy7-CD127 (A7R34), BV510-CXCR3 (CXCR3-173), Zombie NIR, Zombie Yellow or Zombie UV (all from Biolegend, BD Pharmigen or eBiosciences). For transcription factor staining, cells were fixed and permeabilized by a Transcription Factor Buffer kit (BDB562574). For Fc receptor staining, small aliquots of cells from the lung suspensions were separated and stained with PE or PerCP-Cy5.5-CD16/32 antibody (the incubation with Mouse True Stain FcX was skipped in that aliquot of cells). Tumor cells were stained with APC-conjugated anti-H2-Kb (AF6-88.5, Biolegend) and BV650-activated Caspase-3 (C92-605, BD Pharmingen) following permeabilization. Even though the CD45.2 antibody given intravenously and the anti-H2-Kb antibody were conjugated to the same fluorophore (APC), B16F10 cells could be identified based on their larger size, ZsGreen expression as well as the absence of CD45.2 expression. Samples were acquired using a LSR Fortessa, CytoFLEX or a Sony Spectral Analyzer and analyzed by FlowJo V10 software.

B1: 7C6: monoclonal antibody from mice immunized with recombinant MICA α3 domain; parental mIgG2b; VH SEQ ID NO: 7, VL SEQ ID NO: 8 (antibody)
VH: QIQLVQSGPELKKPGETVKVSCKASGYMFTNYAMNWVKQAPEKGLKWMGWINTHTGDPTYADDFKGRIAFSLETSASTAYLQINNLKNEDTATYFCVRTYGNYAMDYWGQGTSVTVSSAKTTAPSVYPLAPVCGDTTGSSVTLGCLVKGYFPEPVTLTWNSGSLSSGVHTFPAVLQSDLYTLSSSVTVTSS
VL: DIQMTQTTSSLSASLGDRVTISCSASQDISNYLNWYQQKPDGTVKLLIYDTSILHLGVPSRFSGSGSGTDYSLTISNLEPEDIATYYCQQYSKFPRTFGGGTTLEIK
modifications: mAb 7C6 heavy chain amino acid sequence; mAb 7C6 light chain amino acid sequence
[1]
  stabilization of MICA/B on the surface of tumor cells: most effective in stabilizing MICAS on the surface of tumor cells
[2]; lung metastases
  H2-Kb (MHC class I) expression by tumor cells: MHC class I upregulation
  apoptosis of tumor cells (active caspase-3): massive tumor cell apoptosis
[2]; mouse, in vivo
  B16F10-MICA tumor cells within lung tissue (percentage, absolute numbers): substantial reduction of tumor cell load within lung tissue
[2]; versus isotype control
  NKG2D levels on lung-infiltrating NK cells: restored NKG2D levels by lung NK cells
